Results from patent US20100129369A1 (Eli Lilly, published 2010).

Experiments:
[1] = target: T1, Cynomolgus Monkey c-Met-Flis-Fc ECD (cynomolgus monkey); assay: SPR Biacore, antibody captured, ECD-Fc analyte, 1:1 model
T1 construct: also called Cynomolgus Monkey cMet-ECD-Fc-Flis; cynomolgus monkey c-Met ECD
Procedure: (§1) A Biacore® 2000 instrument is used to measure the binding kinetics of c-Met antibodies to human, cynomolgus monkey, and rat c-Met ECDs. Measurements are performed at 25° C. Samples are dissolved in HBS-EP buffer (150 mM sodium chloride, 3 mM EDTA, 0.005% (w/v) surfactant P-20, and 10 mM N-2-hydroxyethylpiperazine-N′-2-ethanesulfonic acid (HEPES) at pH 7.4; #BR-1001-88).
(§2) Binding is evaluated using multiple cycles. Each cycle is performed at a flow rate of 50 μL/min., and consists of the following steps: injection of about 10 μL of a c-Met antibody at 10 μg/mL aiming at a capture of 40-100 RUs, injection of 250 μL of human, cynomolgus, or rat c-Met-Flis-Fc ECD (starting at 100 nM and using two-fold serial dilutions for each cycle) followed by 20 min. for dissociation, and regeneration using about 30 μL of 10 mM glycine hydrochloride, pH 1.5. Association and dissociation rates for each cycle are evaluated using a “1:1 (Langmuir) binding” model in the BIAevaluation software, version 4.1.

Human c-Met-Flis-Fc ECD [2] = target: T2, Human c-Met-Flis-Fc ECD (human); assay: as above
T2 construct: also called human c-Met extracellular domain (ECD)-Fc-Flis fusion; Human cMet-ECD-Fc-Flis
T2 sequence (chain, as listed by the source limits assumed): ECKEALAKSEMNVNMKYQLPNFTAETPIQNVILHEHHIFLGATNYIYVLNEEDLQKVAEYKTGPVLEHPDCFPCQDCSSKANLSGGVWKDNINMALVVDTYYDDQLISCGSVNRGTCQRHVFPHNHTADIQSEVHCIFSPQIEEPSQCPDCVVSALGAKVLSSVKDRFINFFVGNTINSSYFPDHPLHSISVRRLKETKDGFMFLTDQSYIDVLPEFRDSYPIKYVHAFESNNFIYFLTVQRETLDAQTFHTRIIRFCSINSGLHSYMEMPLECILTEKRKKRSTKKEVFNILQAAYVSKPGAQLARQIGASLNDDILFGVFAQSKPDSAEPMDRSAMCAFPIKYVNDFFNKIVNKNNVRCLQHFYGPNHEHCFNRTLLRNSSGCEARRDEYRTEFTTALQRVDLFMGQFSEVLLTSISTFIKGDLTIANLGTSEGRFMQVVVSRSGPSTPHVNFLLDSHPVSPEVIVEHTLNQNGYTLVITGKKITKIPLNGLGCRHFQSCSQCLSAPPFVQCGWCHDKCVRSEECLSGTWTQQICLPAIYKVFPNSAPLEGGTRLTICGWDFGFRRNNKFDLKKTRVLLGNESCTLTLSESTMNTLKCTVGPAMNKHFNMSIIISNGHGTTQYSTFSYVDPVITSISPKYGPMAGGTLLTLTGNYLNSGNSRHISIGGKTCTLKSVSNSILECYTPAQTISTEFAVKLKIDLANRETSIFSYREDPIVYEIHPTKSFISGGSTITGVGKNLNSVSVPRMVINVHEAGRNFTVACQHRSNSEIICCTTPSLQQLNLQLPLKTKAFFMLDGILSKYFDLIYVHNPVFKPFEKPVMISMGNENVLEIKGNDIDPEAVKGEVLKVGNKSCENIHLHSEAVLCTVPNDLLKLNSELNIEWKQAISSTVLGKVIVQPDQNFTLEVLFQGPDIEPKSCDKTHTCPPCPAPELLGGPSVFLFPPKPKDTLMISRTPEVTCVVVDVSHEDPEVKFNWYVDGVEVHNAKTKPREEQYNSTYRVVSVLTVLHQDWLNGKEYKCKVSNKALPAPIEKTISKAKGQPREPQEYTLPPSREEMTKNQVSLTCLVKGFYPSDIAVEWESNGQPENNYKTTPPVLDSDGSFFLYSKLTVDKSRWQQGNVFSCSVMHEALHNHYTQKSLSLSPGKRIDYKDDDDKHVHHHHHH
Procedure: as §1, §2

PlexinA2-ECD-Fc = target: T3, PlexinA2-ECD-Fc (human, UniProt O75051 35-1237); assay: ELISA, coated ECD-Fc, antibody 0.002 ng/mL
T3 construct: extracellular domain; Bought reagent
T3 sequence (looked up): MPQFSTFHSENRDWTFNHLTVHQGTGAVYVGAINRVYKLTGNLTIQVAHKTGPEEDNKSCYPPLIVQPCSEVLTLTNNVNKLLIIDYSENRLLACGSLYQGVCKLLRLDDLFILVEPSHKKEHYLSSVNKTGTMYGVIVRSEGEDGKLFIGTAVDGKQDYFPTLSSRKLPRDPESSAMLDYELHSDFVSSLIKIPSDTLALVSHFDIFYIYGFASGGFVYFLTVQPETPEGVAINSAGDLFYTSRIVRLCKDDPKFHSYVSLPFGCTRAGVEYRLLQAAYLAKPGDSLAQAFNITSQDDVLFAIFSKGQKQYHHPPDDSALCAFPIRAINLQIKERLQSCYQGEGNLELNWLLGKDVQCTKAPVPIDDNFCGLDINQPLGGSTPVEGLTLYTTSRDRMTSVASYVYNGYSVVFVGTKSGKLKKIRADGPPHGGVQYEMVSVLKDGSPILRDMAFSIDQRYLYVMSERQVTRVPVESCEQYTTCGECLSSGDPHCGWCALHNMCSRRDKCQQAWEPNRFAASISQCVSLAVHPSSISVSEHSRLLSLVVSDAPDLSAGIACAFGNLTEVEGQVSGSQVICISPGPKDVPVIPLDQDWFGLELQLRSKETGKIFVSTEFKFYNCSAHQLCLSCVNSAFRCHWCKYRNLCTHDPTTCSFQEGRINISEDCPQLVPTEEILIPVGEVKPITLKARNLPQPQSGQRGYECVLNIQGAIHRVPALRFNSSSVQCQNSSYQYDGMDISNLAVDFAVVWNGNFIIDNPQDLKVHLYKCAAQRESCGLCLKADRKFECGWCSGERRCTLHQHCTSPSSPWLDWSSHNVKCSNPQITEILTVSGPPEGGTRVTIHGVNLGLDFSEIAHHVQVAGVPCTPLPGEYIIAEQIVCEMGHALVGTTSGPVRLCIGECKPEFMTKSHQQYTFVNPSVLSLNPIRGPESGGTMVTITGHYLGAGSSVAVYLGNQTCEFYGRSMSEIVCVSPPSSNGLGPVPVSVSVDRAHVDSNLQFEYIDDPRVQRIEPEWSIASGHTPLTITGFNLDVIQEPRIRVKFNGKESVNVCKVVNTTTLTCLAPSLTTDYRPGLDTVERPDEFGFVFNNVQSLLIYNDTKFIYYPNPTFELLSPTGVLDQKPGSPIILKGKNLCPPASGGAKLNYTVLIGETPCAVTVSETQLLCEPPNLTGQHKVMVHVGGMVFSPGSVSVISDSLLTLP
Procedure: (§3) Wells of 96-well EIA/RIA high binding plates (Costar, #2592) are coated with 100 μL of 1 μg/mL human c-Met extracellular domain (ECD)-Fc-Flis fusion (SEQ ID NO:72), RON-ECD-Fc (R&D Systems, #1947-MS), or PlexinA2-ECD-Fc (Abnova, Taipei, Taiwan #H00005362-P01) in coating buffer (BioFX Labs, # COAT-1000-01) overnight at 4° C. […] After the plates are washed, 100 μL/well of substrate solution (BioFx, #TMBW-1000-01) are added and the plates are incubated for 10 min. at room temperature. 100 μL/well of stop solution (BioFx, # LSTP-1000-01) are added to stop the reaction. The colorimetric signals are developed and read at 450 nm using a SpectraMax 190 plate reader (Molecular Devices, Sunnyvale, Calif.). c-Met antibody binding to c-Met, RON and PlexinA2 ECDs is proportional to color signal production.

Human c-Met-Flis-Fc ECD [3] = target: T2, Human c-Met-Flis-Fc ECD; assay: ELISA, coated ECD-Fc, antibody 0.002 ng/mL
Procedure: as §3

T1 sequence (chain, as listed by the source limits assumed): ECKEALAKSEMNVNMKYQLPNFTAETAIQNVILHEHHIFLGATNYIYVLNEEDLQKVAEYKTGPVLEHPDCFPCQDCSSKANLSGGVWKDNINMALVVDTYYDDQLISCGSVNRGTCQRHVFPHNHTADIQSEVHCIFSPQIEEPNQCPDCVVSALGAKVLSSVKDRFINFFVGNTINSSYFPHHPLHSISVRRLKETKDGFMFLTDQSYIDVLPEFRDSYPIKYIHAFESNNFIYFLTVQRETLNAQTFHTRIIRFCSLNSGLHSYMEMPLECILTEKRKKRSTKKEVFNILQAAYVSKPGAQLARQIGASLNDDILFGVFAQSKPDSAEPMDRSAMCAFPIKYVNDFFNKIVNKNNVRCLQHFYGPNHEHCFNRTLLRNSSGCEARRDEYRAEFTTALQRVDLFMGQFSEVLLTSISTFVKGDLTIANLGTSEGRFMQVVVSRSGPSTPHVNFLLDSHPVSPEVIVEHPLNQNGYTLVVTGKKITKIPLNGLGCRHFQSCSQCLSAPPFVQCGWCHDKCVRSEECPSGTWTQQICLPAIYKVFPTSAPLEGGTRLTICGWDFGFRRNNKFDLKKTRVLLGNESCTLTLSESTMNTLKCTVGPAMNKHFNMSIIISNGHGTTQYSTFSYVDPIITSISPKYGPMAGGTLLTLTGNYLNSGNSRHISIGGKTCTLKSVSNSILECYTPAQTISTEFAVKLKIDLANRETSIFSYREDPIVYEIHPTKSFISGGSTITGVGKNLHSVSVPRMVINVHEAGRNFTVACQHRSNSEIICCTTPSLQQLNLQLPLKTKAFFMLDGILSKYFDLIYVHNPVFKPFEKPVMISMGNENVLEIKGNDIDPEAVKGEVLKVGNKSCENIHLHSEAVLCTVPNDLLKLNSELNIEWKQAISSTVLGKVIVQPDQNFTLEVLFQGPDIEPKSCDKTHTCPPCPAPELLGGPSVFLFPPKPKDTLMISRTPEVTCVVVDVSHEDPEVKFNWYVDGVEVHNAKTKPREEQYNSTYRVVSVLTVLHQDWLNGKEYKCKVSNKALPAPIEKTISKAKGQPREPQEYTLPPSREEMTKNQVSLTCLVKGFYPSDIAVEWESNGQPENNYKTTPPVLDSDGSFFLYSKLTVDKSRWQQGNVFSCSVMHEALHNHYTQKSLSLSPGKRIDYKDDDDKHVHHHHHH

Kd [1]: 3.6 nM
koff [1]: 0.00045 s⁻¹
kon [1]: 140000 M⁻¹ s⁻¹
Kd (Human c-Met-Flis-Fc ECD [2]): 4 nM
koff (Human c-Met-Flis-Fc ECD [2]): 0.0003 s⁻¹
kon (Human c-Met-Flis-Fc ECD [2]): 160000 M⁻¹ s⁻¹
Average A450 nm (PlexinA2-ECD-Fc): 0.099 A450 nm
Average A450 nm (Human c-Met-Flis-Fc ECD [3]): 0.326 A450 nm
B1: C8-6 (antibody, human IgG2, kappa, V domains shown)
VH: QVQLVQSGAEVKKPGASVKVSCKASGYTFTDYYMHWVRQAPGQGLEWMGRVNPNRGGTTYNQKFEGRVTMTTDTSTSTAYMELRSLRSDDTAVYYCARTNWLDYWGQGTTVTVSS
VL: DIQMTQSPSSLSASVGDRVTITCSVSSSVSSIYLHWYQQKPGKAPKLLIYSTSNLASGVPSRFSGSGSGTDFTLTISSLQPEDFATYYCIQYSGYPLTFGGGTKVEIKR
notes: Called IgG4, kappa; also called Mab C8-6
